From the supplement of paper PMC9170038

Tests used:
[1] = test system: MS2 coat protein; experiment: apparent KD of MS2 coat protein, switch ON state; designed switch direction (-1 OFF switch, 1 ON switch): -1; higher = weaker reporter binding; details: FMN input: 0 or 200 uM; Eterna round: R93 (includes R88 designs)
In short: (§1)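 Apparent KD per design is the median of normalised cluster binding-curve fits. Designed RNA switches transcribed on-chip from Illumina sequencing clusters were titrated with SNAP-549-labelled MS2 coat protein in twofold steps from 0.7 or 1.5 nM to 3 µM, with 0.8–1.5 h down to 10–20 min per step. Buffer: 100 mM Tris-HCl pH 7.5, 80 mM KCl, 4 mM MgCl2, without or with constant ligand.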

[2] = test system: MS2 coat protein; experiment: apparent KD of MS2 coat protein, switch OFF state (with FMN for OFF switches, without FMN for ON switches); designed switch direction (-1 OFF switch, 1 ON switch): -1; higher = weaker reporter binding; details: FMN input: 0 or 200 uM; Eterna round: R93 (includes R88 designs)
In short: as §1

Sequence	apparent KD of MS2 coat protein [1]	apparent KD of MS2 coat protein [2]
AAAAAGUCAGGAUAUCGGAAAAAAAAAAAAAAAAAAAAAAACGAGAAGGGACAUGAGGAUCACCCAUGUAUGAC [Ex 4 May 7]	56.9 nM	243 nM
AAAAAGUCAGGAUAUGCAGAUAAAAAAACGAAAAAAAAUCUGCAGAAGGGACAUGAGGAUCACCCAUGUAAAAA [Ex 4 May 5]	48.5 nM	40.4 nM
AAAAAGUCAGGAUAUGCGAAGGCGUCUGAUAGACGAGGCUAGCAGAAGGGACAUGAGGAUCACCCAUGUGGAAG [Mat - Exclusion 4 - Eli mod - D89]	81.3 nM	121 nM
AAAAAGUCAGGAUAUGUCAAAGGUCACGAAAGUGACAAAGGACAGAAGGGACAUGAGGAUCACCCAUGUGGAAA [Fiskers Exclusion 4D1 65% - Late G segment 1]	82 nM	115 nM
AAAAAGUGAGGAUAUACGCUGUGGAGUAGACACAACCAGUCGUAGAAGGCACAUGAGGAUCACCCAUGUCCAAA [EX4 Malc#19]	22 nM	49.6 nM
AAAAAGUGAGGAUAUGUCAAAAGUCACAAAAGUGACAAAAGACAGAAGGCACAUGAGGAUCACCCAUGUGAAAA [Mod of Eli - Late G + early G segment 3]	26.8 nM	38.8 nM
AAAAAGUUAGGAUAUACAUGAGGAUCACCCAUGUACAUAUAUGGAGAAUAUAGUAGUAGUAGAAGGGACAAAAA [EX2 Malc#14]	21 nM	26.9 nM
AAAAAUGCAGGAUAUACGUACAUGUCAAAAGACGUGAAGGGACAUGAGGAUCACCCAUGUAGAAGGGUAAAGAA [JL Neck Breaker 15]	237 nM	59.8 nM
AAAAAUGGAGGAUAUACAUGAGGAUCACCCAUGUGUAACAAAACAAAACACAAAAAAAGUAGAAGGCCAAAAAA [Gilly Gone Silly 5 - Jieux - Exclusion 3]	19.2 nM	20.4 nM
AAAAAUUGAGGAUAUACGAACAUGUCGAAAGACGUGAAGGGACAUGAGGAUCACCCAUGUAGAAGGCGAAAAAA [Mat - Exclusion 2 - JL mod - D68]	33.7 nM	20.7 nM
AAAACGGUAGGAUAUACGAAAAAAAAGGGAGAACAAAAGGGACAUGAGGAUCACCCAUGUAGAAGGACCAAAAA [Diamond 89]	40.6 nM	84.7 nM
AAAACGGUAGGAUAUACGAUUGGGAACUAGACCGAGAAACCACAUGAGGAUCACCCAUGUAGAAGGGCCAAAAA [Ex2 Malc#13]	31.1 nM	36.2 nM
AAAAGACAUGAGGAUCACCCAUGUGAGGAUAUGCGAAAAAAAAAAAUAAAAAAAAAAAGUAGAAGGCACACCAA [Mat - Exclusion 1 - Eli mod - D56]	177 nM	248 nM
AAAAGACAUGAGGAUCACCCAUGUUAGGAUAUGGAAAAACAAAAAAAAAAAAAAAAAACCAGAAGGAGCGAGGG [another 1 four]	190 nM	132 nM
AAAAGCACAGGAUAUACAUAAUUAUGACGAAAGUCAUAAAAACAUGAGGAUCACCCAUGUAGAAGGGUGCAAAA [Mod of Meechl's... 64% 1]	118 nM	37.8 nM
AAAAGCACAGGAUAUACGGGAUUAUGACGAAAGUCAUAAAAACAUGAGGAUCACCCAUGUAGAAGGGUGCAAAA [Mod of Meechl's... 64% 2]	191 nM	248 nM
AAAAUACAUGAGGAUCACCCAUGUGAGGAUAUGCUAUGGAAAAUAAAAAUAAAACAUAGCAGAAGGCACAAAAA [Denovo 13]	37 nM	56.7 nM
AAAAUGAAAGGAUAUACAUGAGGAUCACCCAUGUUCCAGAACAGGAGUACAAGCGAGUGUAGAAGGUUCAGCAA [Ercesois]	22.3 nM	42.7 nM
AAACCACAUGAGGAUCACCCAUGUCAGGAUAUGAACGAAAAUAAAUAAAAAUAAAAGUUCAGAAGGGACGAAAA [66%, Wbt, 15]	39.2 nM	37.2 nM
AAACGUUGAGGAUAUACAGAAGGGUAUAAAUCAUAAAAAACACAUGAGGAUCACCCAUGUAGAAGGCAACGAAA	97.9 nM	46.8 nM
AAACUACUAGGAUAUGCAGAAAGGGUGUAUCCUUAAACUCCACAUGAGGAUCACCCAUGUAGAAGGAGUAAUCG [Dilaquis]	32.4 nM	46.4 nM
AAAGGACGAGGAUAUACAUGAGGAUCACCCAUGUAAAGGGCAUAAUAAAAGAACUUAUGUAGAAGGCGUCCAAA [69%, Moding Meechl, 6]	79.1 nM	15.6 nM

Sequence	apparent KD of MS2 coat protein [1]	apparent KD of MS2 coat protein [2]
AAAGGAUCAGGAUAUGUGUGGAAAAAGUGUAUCCGAAAAAAACAUGAGGAUCACCCAUGUAGAAGGGAUCCAAA [Mod 3 of Normal (20/19) by Nando, Round 1]	182 nM	464 nM
AAAGGCUUAGGAUAUACAGUGGUCCCAAUGGGCAUCCGAAAACAUGAGGAUCACCCAUGUAGAAGGAAGAAAAU [Raleor]	68.5 nM	64.7 nM
AAAUAGCAAGGAUAUACAUGAGGAUCACCCAUGUAAGGAUGGAAAGUAAUAGAAGAAAGUAGAAGGUGCAAAUA [Ex 3 Tesla 4]	31.7 nM	36 nM
AAAUAGCAAGGAUAUACAUGAGGAUCACCCAUGUGAAAAAGGUAUGGAAUAGAAUAGAGUAGAAGGUGCAAAUA [Mod of Ex 3 Tesla 8 - Jieux - Exclusion 3]	24.9 nM	35.7 nM
AAAUAGCAAGGAUAUACAUGAGGAUCACCCAUGUGAAAAUGAUACGUAAUAGAAUAGAGUAGAAGGUGCAAAUA [Ex 3 Tesla 7]	25.1 nM	28.7 nM
AAAUAGUUAGGAUAUACAUGAGGAUCACCCAUGUGCACGUAUGGAGAAUAUGGUAAUGGUAGAAGGGACUAAAA [EX2 Malc#21]	44.5 nM	76.5 nM
AAAUGAUGAGGAUAUACAUGAGGAUCACCCAUGUGUAAAAAUAAAUACACAAAAGAAAGUAGAAGGCAUCAAAA [Ex 3 May 12]	22.7 nM	99 nM
AAAUGCUGAGGAUAUACAUGAGGAUCACCCAUGUAAAAUAAAUAAUAGGUGUAAACGUGUAGAAGGCAGCAUAA [Exclusion 3.14a (FMN+ favored )]	62.6 nM	27.5 nM
AAAUUAGCAGGAUAUACUAGGGUCCACCGAACUCUGAAAAGACAUGAGGAUCACCCAUGUAGAAGGGCUUCGAA [Atileso]	30 nM	97.6 nM
AACAAGACAGGAUAUACAUGAGGAUCACCCAUGUGAGAAUAAAGUAGCGUAACACAAAGUAGAAGGGUCAUGGA [Ruby 7]	29.7 nM	57.6 nM
AACAAGUGAGGAUAUCGGAAAAGAAAAUAAGAUACACAAAACGAGAAGGCACAUGAGGAUCACCCAUGUAAAUA [JR_Exc004_Sub012]	35.9 nM	41.5 nM
AACAGCACAGGAUAUACAUGAGGAUCACCCAUGUGAGAAUUAAGUGGCGUACCACAAAGUAGAAGGGUGCUGGA [Mat - Exclusion 3 - JL mod - D39]	35.9 nM	203 nM
AACAGGACAGGAUAUACAUGAGGAUCACCCAUGUAGGAACAAAGCAGAGUACCAAACAGUAGAAGGGUCAUGGA [Ruby 28]	34.2 nM	37.2 nM
AACAGGACAGGAUAUACAUGAGGAUCACCCAUGUGAAGAUUAAGAAGAAAACCACAAAGUAGAAGGGUCCUGGA [Ruby 94]	35.1 nM	79.2 nM
AACAGGUCAGGAUAUGUGGAAAAAAUAAAAAAAAUAAAAACACAGAAGGGACAUGAGGAUCACCCAUGUUAACA [May 25]	36.6 nM	38.8 nM
AACAGUACAGGAUAUACAUGAGGAUCACCCAUGUAAAAUAAAUAAAAAUAAAAAGGGAGUAGAAGGGUACUGGA [Moding Maslow revisited (73) 19]	37.2 nM	50.3 nM
AACAGUACAGGAUAUACAUGAGGAUCACCCAUGUGAAAAUUAAGUGGAAAACCACAAGGUAGAAGGGUACUGGA [Mat - Exclusion 3 - Eli mod - D63]	21.6 nM	78.7 nM
AACAGUACAGGAUAUACAUGAGGAUCACCCAUGUGAAAAUUAAGUGGCGAACCACAAAGUAGAAGGGUACUGAA [Mat - Exclusion 3 - Eli mod - D56]	38.7 nM	79.3 nM
AACAGUACAGGAUAUACAUGAGGAUCACCCAUGUGAAAUAAAAGUGGCGUACCACAAAGUAGAAGGGUACUGAA [Mat - Exclusion 3 - JL mod - D27]	27.1 nM	90.5 nM
AACAGUACAGGAUAUACAUGAGGAUCACCCAUGUGAGAAUUAAGUGGAGAACCACAAAGUAGAAGGGUACUGGA [Mat - Exclusion 3 - JL mod - D2]	37.1 nM	250 nM
AACAGUACAGGAUAUACAUGAGGAUCACCCAUGUGGGAAUUAAGUGGCGUACCACAAAGUAGAAGGGUACUGGA [Moding Maslow revisited (73)]	72.5 nM	172 nM
AACAUGUUAGGAUAUCUAAGAAAAGAAAAGAAAGAAAAGAAAGAGAAGGAACAUGAGGAUCACCCAUGUAAGAA [EteRNA is fun!]	30.1 nM	22.1 nM
